Laboratory results published in patent publication US20260258115A1 (MAPP BIOPHARMACEUTICAL, published 2026).

Legend:
Test in all cases: BLI, IgG
[1] = molecular target: T1, RSV postfusion F (postF), subtype B (respiratory syncytial virus, subtype B)
T1 construct: also called F ΔFP; Postfusion subtype B

[2] = molecular target: T2, RSV postfusion F (postF), subtype A (respiratory syncytial virus, subtype A, UniProt P03420 26-513)
T2 construct: also called F ΔFP; Postfusion subtype A

[3] = molecular target: RSV prefusion F (preF), subtype A (respiratory syncytial virus, subtype A, UniProt P03420 26-513)
[4] = molecular target: RSV prefusion F (preF), subtype B (respiratory syncytial virus, subtype B)

Row | Binder | Kd [1] [nM] | Kd [2] [nM] | Kd [3] [nM] | Kd [4] [nM] | binding result [3] | binding result [2]
1 | ADI-14418 (antibody, V domains shown, also called Ab 84) VH: QVQLVQSGAEVKKPGSSVKVSCKASGGTFTNYNINWVRQAPGQGLQWMGRISPTFAIANYAQKFQGRVTITADKSTSTAYMELSSLRSEDTAVYYCARAPHSGYDLALDYWGQGTLVTVSS VL: DIQMTQSPSTLSASVGDRVTITCRASQSISSWLAWYQQKPGKAPKLLIYEASSLQSGVPSRFSGSGSGTEFTLTITSLQPDDFATYYCQQYNVYPWTFGQGTKVDIK | 0.258 | 0.441 | 1.25 | 1.58 |  | 
2 | ADI-14607 (antibody, V domains shown) VH: EVQLLESGGGVVQSGRSLRLSCAASGFTFNNYAMHWVRQAPGKGLEWVAVISFDGGNKFYGDSVQGRFTISRDNSKNTLYLQTNSLRPEDTAVYYCARDRWEIQIGLDIWGQGTTVTVSS VL: SYVLTQPPSVSVSPGQTARITCSGDALARQNAYWYQQKPGQAPVLVMYRDTGRPSGIPERFSGSSSGTTVTLTISEVQAEDEADYYCQSADSSGAYVFGTGTKVTVL | 0.227 | 0.381 | 1.7 | 0.64 |  | 
3 | ADI-14421 (antibody, V domains shown, also called Ab 87) VH: QVQLVQSGAEVKKPGESLKISCKGSGYNSSINWIGYWIGWVRQMPGKGLEWMGIINPGDSDTRYSPSFQGQVTISVDKSISTAYLQWGSLKASDTAMYYCARRAYRSGWHFDLWGRGTLVTVSS VL: EIVMTQSPATLSVSPGERATLTCRASQSVSSNLAWYQQKPGQAPRLLIYGASTRATGIPARFSGSGSGTQFTLTISSLQSEDFAVYYCQHYNNWPPYTFGQGTKVEIK | 0.74 | 1.07 |  | 2.82 | no binding | 
4 | ADI-14405 (antibody, V domains shown, also called Ab 71) VH: QVQLVQSGTEVKKPGASVKVSCKASGYTFTNYDISWVRQAPGQGLEWMGWISGSTGNTIYAQNLQGRLTMTTDTSTSTAYMELRSLRSDDTAIYYCARDNVGYASGNYFDYWGQGTLVTVSS VL: SYVLTQPPSVSVAPGKTARIPCGGNNIGSKSVHWYQQRPGQAPVLVIYYDSVRPSGIPERFSGSNSGNTATLTISTVEAGDEADFYCQVWDSSRDHEVFGGGTKLTVL | 38 | 11.7 | 0.142 | 0.227 |  | 
5 | ADI-14594 (antibody, V domains shown) VH: QVQLVQSGAEVKKPGASVKLSCKASGYTFTTYTINWVRQAPGQGLEWMGWISGYNGNTDYAQKLQGRFTMTTDTSTNTAYMELRSLTSDDTAVYYCAKGGGGSESYFDYWGQGTLVTVSS VL: SYELTQPPSVSVAPGKTARISCGGNNIGSKSVHWYQQKPGQAPVLVIYYDRDRPSGIPERFSGSNSGNTATLTISRVEAGDEADYYCQLWDRSSDHPYVFGTGTKVTVL | 0.214 | 0.257 |  | 18.2 | no binding | 
6 | ADI-14592 (antibody, V domains shown) VH: QVQLVQSGAEVKKPGESLKISCKGSGYTFTNYWIGWVRQMPGKGLEWMGIIYPDDSDTRYSPSFQGQVTISVDKSINTAYLQWSSLRASDTAIYYCACSNWPHYFDSWGQGTLVTVSS VL: NFMLTQPHSVSESPGKTVTISCTRSSGNIAGNYVQWYQQRPGSAPTTVIYEDNQRPSGVPDRFSGSIDSSSNSASLTISGLKTEDEAVYYCQSYHPGNWVFGGGTKLTVL | 0.0932 | 0.136 | 2.4 | 0.301 |  | 
7 | ADI-14593 (antibody, V domains shown) VH: QVQLVQSGAEVKKPGESLKISCKGSGYSFSSYWVAWVRQMPGKGLEWMGIIYPADSDTRYSPSFQGQVTISADKSDSTAYLQWGSLKASDTAMYYCARSLYGSGDYFDYWGQGTLVTVSS VL: NFMLTQPHSVSESPGRTVIISCTRSSGSIATNYVQWYQQRPGSAPTTVIYEDNQRPSGVPDRFSGSIDSSSNSASLTISGLKTEDEADYYCQSYGSGDVVFGGGTKVTVL | 0.108 | 0.161 | 2.33 | 0.358 |  | 
8 | ADI-21053 (antibody, V domains shown) VH: QVQLQESGPGLVKPSQTLSLTCTVSGVSISNSSGGYYWSWIRQHPGKGLEWIGYIYYSGSTYYNPSSGSTYYNPSLKSRVTVSVDTSKNQFSLKLTSVTAADTAVYYCARDIRGPHKHSLYNWFHPWGQGTLVTVSS VL: not shown | 118 | 6.37 | 71 |  |  | 
9 | ADI-14589 (antibody, V domains shown) VH: QITLKESGPVLVKPSETLTLTCTVSGFSLSNAKMGVSWIRQPPGKALEWLAHIFSNDEKSYNTSLKNRLTISKDTSKSQVVLTMTNMDTVDTATYYCARINYYDSSGYYLANFDYWGQGTLVTVSS VL: NIRLTQSPSSLSASVGDRVTITCRASQRIASYLNWYQQKPGHAPKLLIHAASSLQSGVPSRFSGSGSGTDFTLTINSLLPEDFATYYCQQSYSSPPHSSPPLTFGGGTKVEIK | 15.4 | 0.596 | 6.48 | 28.2 |  | 
10 | ADI-21040 (antibody, V domains shown) VH: EVQLLESGPGLVKPSGTPSLTCAVSGVSITNSNNWWTWVRQPPGKGLEWIGEIYSSGSTNYSPSLKSRVTISLDKSKNQFSLKLSSVTAADTAVYYCARVLGYYGSGGGHLHSWGPGTLVTVSS VL: SYELTQPPSASGTPGQRVTISCSGSSSNIGAGYDVHWYQQLPGTAPKLLISVNSNRPSGVPDRFSGSKSGTSASLAITGLQAEDEANYYCQSYDNSLSGYVVFGGGTKLTVL | 1.03 | 0.777 |  |  | no binding | 
11 | ADI-14590 (antibody, V domains shown) VH: EVQLVESGAEVKKPGESLKISCKGSGYSFATYWIGWVRQMPGKGLEWMGIIYPGDSDTRYSPSFQGQVTISADKSISTAYLQWSSLKASDTAIYYCARAKLPVAGLYYFDYWGQGTLVTVSS VL: DIQLTQSPSSLSASVGDRVTITCRASQGISSTLAWYQQKPGKAPKLLIYDASSLESGVPSRFSGSGSGTDFTLTISSLHPEDFATYYCQQFNTYPTFGGGTKVEIK | 0.967 | 2.68 | 13.2 | 5.99 |  | 
12 | ADI-14425 (antibody, V domains shown, also called Ab 91) VH: QVQLQESGPGLVKPSETLSLTCTVSGGSVRSGSYYWSWIRQPPGKALEWIGYIYYSGSTNYNPALESRVTISVDTSKNQFSLMLSSVTAADTAVYYCARSAEGLARLYYFDHWGQGTLVTVSS VL: QSVLIQPASVSGSPGQSITISCTGTSSDVGGYNYVSWYQQHPGKAPKLMIHDVSNRPSGVSNRFSGSKSGNTASLTISGLQAEDEADYYCSTYRSSNTLVVFGGGTKLTVL | 9.34 | 0.742 | 48.1 | 20.3 |  | 
13 | ADI-14606 (antibody, V domains shown) VH: QVQLVQSGGGLVQPGGSLRLSCAASGFTVSSNYMGWVRQAPGKGLEWVSVIYTGGSTYYADSVKGRFTISRDNFKNTLYLQMNSLRAEDTALYYCARDLYSSGWFGYWGQGTLVTVSS VL: DIRLTQSPATLSVSPGERATLSCRASQSVSINLGWFQQKPGQSPRLLIYGTSTRATGIPARFSGSGSGTEFTLTISSLQSEDFAVYYCHQYNNWPYTFGQGTKVEIK | 0.659 | 1.28 |  |  | no binding | 
14 | ADI-14406 (antibody, V domains shown, also called Ab 72) VH: QVQLVQSGAEVKKPGESLKISCKGSGYKFTNYWIAWVRQMPGKGLEWLGVIYPGASDITYSPSFQGQVTISADKSISTAYLQWSSLKASDTAIYYCARQGSITAMSYWGQGTMVTVSS VL: not shown | 0.473 | 0.339 | 6.85 | 0.906 |  | 
15 | ADI-14416 (antibody, V domains shown, also called Ab 82) VH: QVQLVQSGAEVKKPGESLKISCKGSGDTFSRNWIGWVRQMPGKGLEWMGIIWPGDSDTRYRQFFQGQQGQVIISVDKSISTAYLQWSSLKASDTATYYCATSPYGLGSYYEHWGQGTLVTVSS VL: NFMLTQPHSLSDSPGKTVVISCTRSSGSIASNYVQWYQQRPGSAPTTVIYEDNQRPSGVPDRFSGSIDSSSNSASLTISGLKTEDEADYYCQSYDSSNPYVFGTGTKVTVL | 0.106 | 0.182 | 2.39 | 0.369 |  | 
16 | ADI-14599 (antibody, V domains shown) VH: EVQLVESGGGLVQPGRSLRLSCKTSGFTFGDYAMSWVRQAPGQGLDWVGFIRTKAYGGTTEYAASVKGRFTLSRDDSKSIAYLQMNSLKTEDTAVYYCKSGGQFDYWGRGTLVTVSS VL: NFMLTQPHSVSGSPGKTVTISCTGSSGSIASNYVQWYQQRPGSAPTTVICEDNQRPSGVPDRFSGSIDSSSNSASLTISGLKTEDEADYYCQSYDRSNQEVFGGGTKLTVL | 0.358 | 0.636 | 0.102 | 0.622 |  | 
17 | ADI-14573 (antibody, V domains shown) VH: QVQLVQSGAEVKKPGASVKVSCKASGYTFTTYGISWVRQAPGQGLEWMGWISTYKTYTNYAQKFQGRVTMTTDTSTSTAYMELRSLRSDDTAVYYCAKVAGGSGSYGDYWGQGTLVTVSS VL: QPVLTQPPSVSVAPGKTARITCGGNNIGSKSVHWYLQKPGQAPVLVIYYDSDRPSGIPERFSGSNSGNTATLTISRVEAGDEADFFCQVWDSSSDHWVFGGGTKVTVL | 3.55 | 0.373 |  | 21 | no binding | 
18 | ADI-14393 (antibody, V domains shown, also called Ab 60) VH: QVQLVESGGGLVKPGGSLRLSCAASGFSFTGFYMNWVRQAPGKGLEWVSSISSSSTYKNYADSLQGRFTISRDNARSSLYLQMNSLRAEDTAVYYCARTRTEYTYGYYHDFWGQGTLVTVSS VL: QPVLTQPPSVSGAPGQRVTISCTGSSSNIGAGYDVHWYQQVPGTAPKLLIYNNNNRPSGVPDRFSGSKSGTSASLAITGLQAEDEADYYCQSYDSRLSGVFGGGTKLTVL | 11.7 |  | 0.311 | 0.474 |  | no binding
19 | ADI-14595 (antibody, V domains shown) VH: EVQLLESGGGLVQPGGSLRLSCAASGFTFSIYSMNWVRQAPGKGLEWISYISRSGSTIFYADSVKGRFTISRDDAKNSLFLQMTSLRDADTAVYYCARVDCSNNKCYDYWGQGTLVTVSS VL: DIQLTQSPATLSLSPGERATLSCRASQSISSFLAWYQQKPGQAPRLLIYDASKRATGTPARFSGGGSGRDFTLTISSLEPEDFAVYYCQQRSSWPLYTFGQGTKVEIK | 14.4 | 1.3 | 2.19 | 16 |  | 
